The target of this assay is fibronectin (from human plasma) (human) (UniProt P02751). As to the kind of experiment: ELISA; as the adhesion assay on coated substrate, over a range of protein concentrations; KD estimated with the xy analysis subprogram of GraphPad Prism v. 5.

Broadly, the Kd is the free concentration of one partner at which half of the binding sites on the other are occupied at equilibrium, for simple one-to-one binding.

Sequence of UniProt P02751 (P02751 other isoform, or with tags, fused parts or gaps, chain 1 of 2): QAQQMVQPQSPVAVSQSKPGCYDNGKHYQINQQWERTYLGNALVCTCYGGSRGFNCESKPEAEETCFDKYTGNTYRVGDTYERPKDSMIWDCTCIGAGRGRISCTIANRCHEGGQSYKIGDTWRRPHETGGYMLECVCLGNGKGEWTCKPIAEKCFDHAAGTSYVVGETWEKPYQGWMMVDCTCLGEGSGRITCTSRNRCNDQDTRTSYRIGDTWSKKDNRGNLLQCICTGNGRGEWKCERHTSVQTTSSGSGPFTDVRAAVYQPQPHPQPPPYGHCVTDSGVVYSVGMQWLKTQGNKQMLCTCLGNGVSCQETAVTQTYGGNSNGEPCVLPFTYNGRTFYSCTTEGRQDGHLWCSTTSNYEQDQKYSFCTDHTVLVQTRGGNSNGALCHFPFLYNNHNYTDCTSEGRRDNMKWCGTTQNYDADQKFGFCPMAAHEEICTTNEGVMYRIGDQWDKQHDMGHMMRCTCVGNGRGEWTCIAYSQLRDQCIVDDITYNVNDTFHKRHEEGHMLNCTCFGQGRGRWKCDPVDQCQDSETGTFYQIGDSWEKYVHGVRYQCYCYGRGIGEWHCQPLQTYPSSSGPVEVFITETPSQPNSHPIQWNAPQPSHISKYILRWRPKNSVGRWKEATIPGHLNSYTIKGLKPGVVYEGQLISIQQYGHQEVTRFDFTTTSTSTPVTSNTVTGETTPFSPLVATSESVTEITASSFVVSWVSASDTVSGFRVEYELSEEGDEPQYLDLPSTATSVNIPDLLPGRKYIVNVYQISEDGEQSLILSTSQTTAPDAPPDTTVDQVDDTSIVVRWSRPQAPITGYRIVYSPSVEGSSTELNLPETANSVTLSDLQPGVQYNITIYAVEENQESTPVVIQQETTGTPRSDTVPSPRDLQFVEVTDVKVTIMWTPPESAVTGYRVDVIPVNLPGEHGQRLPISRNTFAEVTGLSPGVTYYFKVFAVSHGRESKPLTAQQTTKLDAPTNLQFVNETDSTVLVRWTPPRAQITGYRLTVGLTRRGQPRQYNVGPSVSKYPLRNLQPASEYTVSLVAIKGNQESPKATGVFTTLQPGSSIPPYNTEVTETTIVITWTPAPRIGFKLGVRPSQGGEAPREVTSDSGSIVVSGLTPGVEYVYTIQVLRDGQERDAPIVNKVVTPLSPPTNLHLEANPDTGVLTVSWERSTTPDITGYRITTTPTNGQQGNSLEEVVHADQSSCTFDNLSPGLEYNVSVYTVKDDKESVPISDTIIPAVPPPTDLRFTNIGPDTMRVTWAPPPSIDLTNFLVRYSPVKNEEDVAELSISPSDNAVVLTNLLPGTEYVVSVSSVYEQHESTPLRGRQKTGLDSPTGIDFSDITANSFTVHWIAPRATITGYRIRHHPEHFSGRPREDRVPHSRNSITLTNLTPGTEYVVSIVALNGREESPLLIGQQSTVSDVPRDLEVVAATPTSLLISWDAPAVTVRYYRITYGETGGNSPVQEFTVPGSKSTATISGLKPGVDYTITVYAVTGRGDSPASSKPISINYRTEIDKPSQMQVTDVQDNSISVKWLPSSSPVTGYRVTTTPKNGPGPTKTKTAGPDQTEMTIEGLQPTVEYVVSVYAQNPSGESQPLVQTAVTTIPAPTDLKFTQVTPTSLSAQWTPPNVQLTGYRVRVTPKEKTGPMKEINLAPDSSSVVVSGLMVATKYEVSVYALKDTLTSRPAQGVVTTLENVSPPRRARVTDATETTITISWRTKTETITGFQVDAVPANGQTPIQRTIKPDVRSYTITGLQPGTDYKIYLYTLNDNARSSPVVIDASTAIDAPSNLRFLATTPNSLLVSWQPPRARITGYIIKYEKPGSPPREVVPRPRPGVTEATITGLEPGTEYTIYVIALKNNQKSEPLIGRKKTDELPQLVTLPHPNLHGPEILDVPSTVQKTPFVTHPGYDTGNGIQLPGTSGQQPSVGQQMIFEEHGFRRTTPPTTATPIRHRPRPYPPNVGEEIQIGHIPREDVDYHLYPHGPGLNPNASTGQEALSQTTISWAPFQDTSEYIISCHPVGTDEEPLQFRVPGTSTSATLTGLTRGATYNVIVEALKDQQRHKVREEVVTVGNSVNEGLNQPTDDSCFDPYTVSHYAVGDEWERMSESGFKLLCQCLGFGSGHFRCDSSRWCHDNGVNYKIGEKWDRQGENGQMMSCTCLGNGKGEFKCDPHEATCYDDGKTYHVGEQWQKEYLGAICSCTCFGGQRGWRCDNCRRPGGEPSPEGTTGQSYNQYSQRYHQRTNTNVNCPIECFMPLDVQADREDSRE
Sequence of UniProt P02751 (P02751 other isoform, or with tags, fused parts or gaps, chain 2 of 2): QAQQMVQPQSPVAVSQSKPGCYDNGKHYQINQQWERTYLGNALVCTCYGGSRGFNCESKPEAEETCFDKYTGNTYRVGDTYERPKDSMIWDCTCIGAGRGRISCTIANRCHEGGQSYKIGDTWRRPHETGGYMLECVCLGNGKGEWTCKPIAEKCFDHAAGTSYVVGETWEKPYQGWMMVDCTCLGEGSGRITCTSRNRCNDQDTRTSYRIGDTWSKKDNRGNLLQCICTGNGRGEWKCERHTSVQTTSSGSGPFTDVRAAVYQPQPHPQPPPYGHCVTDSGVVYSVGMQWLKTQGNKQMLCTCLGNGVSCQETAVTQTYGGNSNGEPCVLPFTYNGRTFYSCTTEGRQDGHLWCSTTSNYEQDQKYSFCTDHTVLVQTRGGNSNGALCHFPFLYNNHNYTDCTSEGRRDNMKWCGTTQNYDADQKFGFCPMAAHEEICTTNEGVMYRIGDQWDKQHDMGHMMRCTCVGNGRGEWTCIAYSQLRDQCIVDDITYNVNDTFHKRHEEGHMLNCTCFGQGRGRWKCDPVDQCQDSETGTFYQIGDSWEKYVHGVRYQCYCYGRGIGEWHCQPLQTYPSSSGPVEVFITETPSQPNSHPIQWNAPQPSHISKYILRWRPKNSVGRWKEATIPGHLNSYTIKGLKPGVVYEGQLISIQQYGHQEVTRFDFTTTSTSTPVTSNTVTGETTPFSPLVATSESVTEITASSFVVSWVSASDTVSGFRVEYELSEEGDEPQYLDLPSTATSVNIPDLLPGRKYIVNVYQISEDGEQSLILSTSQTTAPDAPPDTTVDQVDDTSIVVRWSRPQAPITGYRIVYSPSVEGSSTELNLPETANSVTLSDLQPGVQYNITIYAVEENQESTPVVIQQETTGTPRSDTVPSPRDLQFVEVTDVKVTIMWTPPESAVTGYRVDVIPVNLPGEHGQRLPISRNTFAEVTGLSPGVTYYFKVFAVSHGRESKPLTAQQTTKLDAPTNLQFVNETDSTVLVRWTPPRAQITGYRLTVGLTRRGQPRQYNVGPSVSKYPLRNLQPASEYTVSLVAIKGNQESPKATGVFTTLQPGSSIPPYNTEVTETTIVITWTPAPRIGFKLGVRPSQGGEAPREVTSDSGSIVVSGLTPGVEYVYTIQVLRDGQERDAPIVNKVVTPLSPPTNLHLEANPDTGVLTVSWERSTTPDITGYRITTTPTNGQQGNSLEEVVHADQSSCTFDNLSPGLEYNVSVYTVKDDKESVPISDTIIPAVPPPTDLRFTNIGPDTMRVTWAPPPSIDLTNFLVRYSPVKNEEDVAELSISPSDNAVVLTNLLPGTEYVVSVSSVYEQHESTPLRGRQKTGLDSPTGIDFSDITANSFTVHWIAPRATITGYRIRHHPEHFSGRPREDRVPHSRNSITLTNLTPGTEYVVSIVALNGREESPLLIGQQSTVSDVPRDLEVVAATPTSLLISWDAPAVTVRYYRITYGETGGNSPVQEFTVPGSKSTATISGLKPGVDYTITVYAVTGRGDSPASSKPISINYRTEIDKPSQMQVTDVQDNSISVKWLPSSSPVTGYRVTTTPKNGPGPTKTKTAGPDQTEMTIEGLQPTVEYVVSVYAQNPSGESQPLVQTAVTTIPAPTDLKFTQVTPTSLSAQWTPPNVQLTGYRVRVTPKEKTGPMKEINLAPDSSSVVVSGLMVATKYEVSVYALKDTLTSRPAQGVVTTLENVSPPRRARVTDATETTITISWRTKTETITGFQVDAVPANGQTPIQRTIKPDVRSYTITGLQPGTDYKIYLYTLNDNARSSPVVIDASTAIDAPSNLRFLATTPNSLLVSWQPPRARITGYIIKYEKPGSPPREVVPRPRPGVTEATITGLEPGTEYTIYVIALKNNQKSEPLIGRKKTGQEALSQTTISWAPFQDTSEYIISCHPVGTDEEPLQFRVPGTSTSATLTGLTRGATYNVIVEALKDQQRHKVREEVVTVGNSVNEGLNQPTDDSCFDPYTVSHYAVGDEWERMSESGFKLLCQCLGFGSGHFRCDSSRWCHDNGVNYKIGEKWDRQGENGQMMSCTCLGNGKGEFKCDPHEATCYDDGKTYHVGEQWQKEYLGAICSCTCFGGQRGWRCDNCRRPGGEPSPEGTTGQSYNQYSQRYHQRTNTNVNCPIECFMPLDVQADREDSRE

With MBP-OmpL1 (natural protein), the Kd is 870 nM.

Source of the values: publication PMC4397020.
